This data set concerns the molecule itself. As to the kind of experiment: SEC. (In general: In gel filtration, larger molecules generally elute earlier.)

B1: Benzylsuccinate synthase α subunit (BSS-α) with a C-terminal His6 tag (natural protein, Thauera aromatica T1, UniProt O68395 1-864, looked up)
chain: MNDIVSAKVLEYKGKKLNFTPEDPAEETIPADELHEHLQKPSTARTKRLKERCRWKHASAGEFIEKSVTAGIERMRYLTEAHKASEGKPEAIRRALGLANVLNKSTLVLQEDEFIVGYHAEDPNMFPLYPELSHMAVQDYLRSDYSPQPADEAAAINEYWKPHSLQSKCQPYFDPADLGRMYQVSSMEAPSFASGYNSIVPPYETVLEDGLLARIKLAEKHIAEAQADMSTFPWNGTKGLDNIAKIDNWKAMVIACKAVISWARRQGRLCKIVAENFETDPKRQAELLEIADICQRIPAEPCKGLKDAMQAKFFTFLICHAIERYASGYAQKEDTLLWPYYKASVVDKKFQPMSHMDAVELVEMERLKISEHGAGKSRAYREIFPGSNDLFILTVGGTNAKGEDACNDMTDAILEAAKRIRTAEPSIVFRYSKKNREKTLRWVFECIRDGLGYPSIKHDEIGTEQMKEYAKFSLNGNGATDEEAHNWVNVLCMSPGIHGRRKTQKTRSEGGGSIFPAKLLEISLNDGYDWSYADMQLGPKTGDLSSLKSFEDVWEAFRKQYQYAINLCISTKDVSRYFEQRFLQMPFVSAIDDGCMELGMDACALSEQPNGWHNPITTIVAANSLVAIKKLVFEEKKYTLEQLSQALKANWEGFEEMRVDFKRAPKWGNDDDYADGIITRFYEEIIGGEMRKITNYSGGPVMPTGQAVGLYMEVGSRTGPTPDGRFGGEAADDGGISPYMGTDKKGPTAVLRSVSKVQKNQKGNLLNQRLSVPIMRSKHGFEIWNSYMKTWHDLNIDHVQFNVVSTDEMRAAQREPEKHHDLIVRVSGYSARFVDIPTYGQNTIIARQEQDFSASDLEFLNVEI
Take B1: the “stoichiometry N” value was 2.

Usually stoichiometry N stands for a count of units in the complex or per binding partner.

The values above are taken from publication PMC2820103 (Biochemistry, 2009).
